The target of the assay is T1, Human TIM-3 Human Fc tagged protein (human, fluorescently labeled with HiLyte Fluor 555 (sites not given)).
T1 construct: Bought construct; also called TIM-3 protein tagged with human Fc; ACROBiosystems catalog no: TM3-H5258
The assay is described as follows: capture slide probed with labeled TIM-3-Fc.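 Note: IgG from single CD138-enriched plasma cells, isolated from lymphocytes, immobilized on a derivatized glass slide.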

Numbering of substitutions follows the chain as printed.

B1: SCT-Fa173 (antibody, V domains shown)
VH: QVQLQQSGAELMRPGASVTLSCKASGYTFPDYEMYWVKQTPVHGLEWIGVIDPETGGTAYNQKFEVKAILTADKSSNTAYMELRSLTSEDSAVYYCTRWAYWGQGTLVTVSA
VL: QIVLTQSPAIMSASLGERVTMTCTASSSVSSSYLHWYQQKPGSSPKLWVYSTSNLASGVPGRFSGSGSGTSYSLTISSMEAEDAATYYCHHYHRSPPTFGGGTKLEIK
notes: murine IgG
B1: the binding result is on record as “binds”.

B2: SCT-Fa175 (antibody, V domains shown)
VH: QVQLQQSGAELVRPGASVTLSCKASGYTFSDYEMHWVKQTPVHGLEWIGVIDPETGDTAYNQKFKDKAVLTADKSSNTAYMELRSLTSEDSAVFFCTSNGYPEHWGQGTTLTVSS
VL: B1 VL with S28G, S32T, K40R, V49I, N54T, G61A, H91Q, P97L, G101A, I107L
notes: murine IgG
On to B2, for which the binding result is “binds”.

B3: SCT-Fa178 (antibody, V domains shown)
VH: B1 VH with M12V, P30T, Y60H, N61D, E65K, V66G, N77S, Y101F
VL: B1 VL with H93N
notes: murine IgG
As to B3, the binding result is given as “binds”.

B4: SCT-Fa172 (antibody, V domains shown)
VH: QVQLQQSGAELARPGASVKLSCKASGYTFTSYGISWVKQRTGQGLEWIGEIYPRSGNTYYNEKFKGKATLTADKSSSTAYMELRSLTSEDSAVYFCARSTYGSSSYAMDYWGQGTSVTVSS
VL: DVLMTQTPLSLPVSLGDQASISCRSSQSIVHSNGNTYLEWYLQKPGQSPKLLIYKVSNRFSGVPDRFSGSGSGTDFTLKISRVEAEDLGVYYCFQGSHVPYTFGGGTKLEIK
notes: murine IgG
Take B4: the binding result is on record as “binds”.

B5: SCT-Fa176 (antibody, V domains shown)
VH: QVQLQQSGAELVRPGASVTLSCKASGYTFTDFEMHWVKQTPVHGLEWIGAIDPETGGTAYNQKFKGKAILTADRSSSTAYMELRSLTSEDSAVYYCTRGIYYGNYGSAMDYWGQGTSVTVSS
VL: B4 VL with V99A, Y101L, G105A, I111L
notes: murine IgG
For B5, the binding result is reported as “binds”.

B6: SCT-Fa174 (antibody, V domains shown)
VH: QVQLQQSGAELVKPGASVKLSCKASGYSITGYYIHWVKQRPGQGLEWIGWIYPGSGSIKYNEKFKGKATLTADTSSSTADMQLSSLTSEDSAVYYCAREAWGNWYFDVWGTGTTVTVSS
VL: DILLTQSPAILSVSPGERVSFSCRASQSIGTSIHWYQQRTNGSPRLLIKYASESISGIPSRFSGSGSGTDFTLSINSVESEDIADYYCQQSNSWPYTFGGGTKLEIK
notes: murine IgG
As for B6, the binding result is reported as “binds”.

B7: SCT-Fa148 (antibody, V domains shown)
VH: QVQLQQPGAEVVKPGASVKLSCKASGYTFTSYWMQWVKQRPGQGLEWIGEIDPSDNYTDYNQNFKGKATLTVDTSSSTAYMQLSSLTSEDSAVYYCAKEGAYSSPFAYWGPGTLVTVSA
VL: DILMTQSPSSMSVSLGDTVTIICHASQDIRSNIGWLRQKPGTSFKGLIYHGTNLEDGVPSRFSGSGSGADYSLTISSLESEDFADYYCVQYVQFPRTFGGGTKLEIK
notes: murine IgG
In the case of B7, the binding result is reported as “binds”.

B8: SCT-Fa169 (antibody, V domains shown)
VH: QVQLQQPGTELVMPGASVNLSCKASGYTFTSYWMHWVKQRPGQGLEWIGEIDPSDSYANYNQNFKGKATLTVDKSSITAYMQLSSLTSEDSAVYYCARNYGSNYVGYFDYWGQGTTLTVSS
VL: DIQMTQTTSSLSASLGDRVTISCRASQDISNYLNWYQQKPDGTVKLLIYYTSRLHSGVPSRFSGSGSGTDYSLTISNLDQEDIATYFCQQEKTLPWTFGGGTKLEIK
notes: murine IgG
In the case of B8, the binding result is “binds”.

B9: SCT-Fa179 (antibody, V domains shown)
VH: QVQLQQSGAELVRPGTSVKVSCKASGYAFSNYLIEWVKQRPGQGLEWIGVINPGNGGTTYNEKFKDKATLTADRSSTTAYMQLSSLTSEDSAVFFCARTAYGSPLDYWGQGTTLTVSS
VL: DIKMTQSPSSMYASRGERVTITCKASQDINRYLSWLQQKPGKSPKTLIYRANRLVDGVPSRFSGSGSGQDYSLTISSLEYEDMGIYYCLQYDEFPYTFGGGTKLEIK
notes: murine IgG
B9: the binding result is on record as “binds”.

B10: SCT-Fa180 (antibody, V domains shown)
VH: B9 VH with S30T, V37A, N55S, G57A, D66G, K67R, R74M, Y107C
VL: B9 VL with R15L, P40A, A51E, D56E
notes: murine IgG
As for B10, the binding result is reported as “binds”.

B11: SCT-Fa170 (antibody, V domains shown)
VH: QVQLQQSGAELARPGASVKLSCKASGYTFRSYGLSWVKQRTGQGLEWIGEIYPRSGNTYYNEKFKDRVTLTADKSSSAAYMELRSLTSEDSAVYFCARSTAVVAGGFDYWGQGTALTVSS
VL: DIVMTQSPSSLTVTAGEKVTMSCKSSQSLFNSRTQKNSLTWYQQKPGQPPKLLIFWASTRESGVPDRFTGSASGTDFTLTLSGVQAEDLAIYYCQNDYTYPWTFGGGTKLEIK
notes: murine IgG
Consider B11, for which the binding result was “binds”.

B12: SCT-Fa171 (antibody, V domains shown)
VH: B11 VH with R30T, S31N, L34I, T58S, D66G, R67K, V68A, A78T, V102I, A115T
VL: B11 VL with F30L, T34I, F55Y, G70A, A72G, L81I, G83S, I91V
notes: murine IgG
Regarding B12, the binding result was “binds”.

B13: SCT-Fa151 (antibody, V domains shown)
VH: QVQLQQPGSELVRPGTSVKLSCKASGYTFTSYWMHWVKQRPGQGLEWIGVIDPSDNNTHYNQKFTGKATLTVDTSSSTAYMHLSSLTSEDSAVFYCARNDYDGGYFDFWGQGTTLTVSS
VL: DVVMTQTPLSLPVSLGDHASISCRSSQSLVHSNGHTYLHWYLQKPGQSPKLLIDKVSNRFSGVPDRFSGSGSGTDFTLKISRVEAEDLGVYFCSQSTHVPWTFGGGTKLEIK
notes: murine IgG
With B13, the binding result was “binds”.

B14: SCT-Fa177 (antibody, V domains shown)
VH: B1 VH with M12V, P30T, Y60H, N61D, E65K, V66G, N77S, Y101F
VL: B13 VL with H18Q, H35N, D54Y, K79R, E86D, W101Y
notes: murine IgG
As for B14, the binding result is reported as “binds”.

B15: SCT-Fa158 (antibody, V domains shown)
VH: QVQLQQPGTELVKPGASVKVSCKASGYTFISYWMHWVKQRPGQGLEWIGNIDPNSGTTNYNEKFKTKATLTVDKSSSTAYMQLSSLTSEDSAVYYCARWGWDGFAYWGQGTLVTVSA
VL: DAVMTQTPLSLPVSLGDQASISCRSSQSLENSNGNTYLNWYLQKPGQSPQLLIYRVSTRFSGVLDRFSGSGSGTDFTLKISRVEAEDLGVYFCLQVTHVPYTFGGGTKLEIK
notes: murine IgG
For B15, the binding result is reported as “binds”.

B16: SCT-Fa161 (antibody, V domains shown)
VH: B15 VH with S55Y, T57G, T58P
VL: QIVLTQSPALMSASPGEKVTMTCSASSSVSYMYWYQQKPRSSPKPWIYLTSNLASGVPARFSGSGSGTSYSLTISSMEAEDAATYYCQQWSSNPFTFGSGTKLEIK
notes: murine IgG
Regarding B16, the binding result is listed as “binds”.

B17: SCT-Fa163 (antibody, V domains shown)
VH: B15 VH with S55Y, T57G, T58S, T66S
VL: DIQMTQSPSSLSASLGERVSLTCRASQDIGSSLNWLQQEPDGTIKRLIYATSSLDSGVPKRFSGSRSGSDYSLTISSLESEDFVDYYCLQYASSPFTFGSGTKLEIK
notes: murine IgG
Take B17: the binding result is given as “binds”.

B18: SCT-Fa155 (antibody, V domains shown)
VH: B15 VH with T57G, T66S, T69I, Y95F
VL: B15 VL with A2V, V56I
notes: murine IgG
On to B18, for which the binding result is listed as “binds”.

B19: SCT-Fa159 (antibody, V domains shown)
VH: B15 VH with S55Y, T57G, T58P
VL: B15 VL with T58N, V96I
notes: murine IgG
With B19, the binding result is given as “binds”.

B20: SCT-Fa152 (antibody, V domains shown)
VH: B15 VH with W33C, E46D, S55N, T57G, T58P
VL: B15 VL with T58N
notes: murine IgG
On to B20, for which the binding result is “binds”.

B21: SCT-Fa157 (antibody, V domains shown)
VH: B15 VH with T57I, T66S, T69I
VL: B15 VL with A2V, V56I
notes: murine IgG
B21: the binding result is given as “binds”.

B22: SCT-Fa153 (antibody, V domains shown)
VH: B15 VH with E46D, S55N, T57G, T66S
VL: B15 VL with N33Y
notes: murine IgG
Regarding B22, the binding result is on record as “binds”.

B23: SCT-Fa156 (antibody, V domains shown)
VH: B15 VH with T57G, T66S, T69I, A97T
VL: B15 VL with A19V, V56I
notes: murine IgG
Consider B23, for which the binding result is given as “binds”.

B24: SCT-Fa168 (antibody, V domains shown)
VH: B15 VH with A24T
VL: B15 VL
notes: murine IgG
B24: the binding result is listed as “binds”.

B25: SCT-Fa164 (antibody, V domains shown)
VH: B15 VH with D52N, S55N, T57G, T66S
VL: B15 VL
notes: murine IgG
For B25, the binding result is reported as “binds”.

B26: SCT-Fa160 (antibody, V domains shown)
VH: B15 VH with S55Y, T57G, T58P
VL: B15 VL with T58N, V96L
notes: murine IgG
On to B26, for which the binding result is recorded as “binds”.

B27: SCT-Fa166 (antibody, V domains shown)
VH: B15 VH with I30V, S55N, T57G, T58S, K63R, K65R, T87A
VL: B15 VL with V96L
notes: murine IgG
In the case of B27, the binding result is on record as “binds”.

B28: SCT-Fa165 (antibody, V domains shown)
VH: B15 VH with I30V, M34I, S55N, T57G, T58S, K63R, K65R, T87A
VL: B15 VL with V96L
notes: murine IgG
As for B28, the binding result was “binds”.

B29: SCT-Fa154 (antibody, V domains shown)
VH: B15 VH with T57G, N59K, T66S, T69I, A97T
VL: B15 VL with A19V, V56I
notes: murine IgG
For the molecule B29, the binding result is “binds”.

The values are drawn from patent publication US20230279105A1 (SINGLE CELL TECHNOLOGY, published 2023).
